Data on 43 molecules can be found in patent publication US7407939.

What all share (assay): cell-based or functional assay
For one experiment, the target named is protein kinase B, P31749.
The next experiment addresses protein kinase B (UniProt P31749).
The target in experiment [1] is protein kinase A, catalytic subunit.

Where no end group is shown, it is not given here. Side-chain parts run from the residue outwards. [ ]: non-standard residue; d: D form. The star is where a group is joined. O‑CO‑N‑SO2‑IQ = carbamate-linked N-sulfonyl 5-aminoethylsulfonamide isoquinoline (O-CO-N-SO2-IQ); SO2‑IQ = 5-aminoethylsulfoneamide isoquinoline, O=S(=O)(NCCN*)c1cccc2cnccc12; X1 = 5‑aminoethylsulfonamide isoquinoline, O=S(=O)(NCCN*)c1cccc2cnccc12; S‑IQ = 5-mercaptoaminopropyl isoquinoline; hLeu = CC(C)CC[C@H](N)C(=O)O; GltNH2 = not defined here; Nle = CCCC[C@H](N)C(=O)O; Orn = NCCC[C@H](N)C(=O)O; bGaba = not defined here; Dab = NCC[C@H](N)C(=O)O; Nva = CCC[C@H](N)C(=O)O; Abu = CC[C@H](N)C(=O)O; Dap = NC[C@H](N)C(=O)O; Ph2 = not defined here; GlyNH2 = aminoglycine; Ava = NCCCCC(=O)O; βAla = NCCC(=O)O

protein kinase B, P31749, sequence (P31749 whole entry): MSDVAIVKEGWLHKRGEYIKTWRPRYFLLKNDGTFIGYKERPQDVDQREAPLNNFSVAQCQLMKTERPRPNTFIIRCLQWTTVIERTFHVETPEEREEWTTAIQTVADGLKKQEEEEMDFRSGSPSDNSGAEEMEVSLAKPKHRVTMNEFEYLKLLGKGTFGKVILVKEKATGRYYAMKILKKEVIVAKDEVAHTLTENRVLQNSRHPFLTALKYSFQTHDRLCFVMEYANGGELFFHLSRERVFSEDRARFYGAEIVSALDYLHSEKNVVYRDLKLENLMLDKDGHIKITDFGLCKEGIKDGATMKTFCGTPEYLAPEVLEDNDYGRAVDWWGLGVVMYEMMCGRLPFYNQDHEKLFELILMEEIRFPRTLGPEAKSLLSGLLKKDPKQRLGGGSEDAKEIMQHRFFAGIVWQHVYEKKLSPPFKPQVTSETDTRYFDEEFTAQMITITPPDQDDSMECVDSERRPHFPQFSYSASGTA
protein kinase B, sequence (P31749 whole entry): as above

B1: PTR 6140 (peptide)
peptide: RPR[Nle]E([βAla-SO2‑IQ])[Dab]F
In the experiment with protein kinase B, P31749, B1 showed a PKB IC50 of 413 nM.

B2: TY-60020-42 (peptide)
peptide: RPR[Orn]E([Gly-X1])[Dab][hLeu]
modifications: not fully specified (C-terminus)
For B2, in the experiment with protein kinase B, the % inhibition of kinase activity at 1 µM; PKB-kinase (spa) Assay 1 came to 80%, the % inhibition of kinase activity at 1 µM; PKB-kinase (spa) Assay 2 was 86% and the IC50 PKB worked out at 110 nM. Moreover, in experiment [1], the % inhibition of kinase activity at 1 µM; PKA-kinase Assay 1 amounted to 99%, the % inhibition of kinase activity at 1 µM; PKA-kinase Assay 2 amounted to 99% and the IC50 PKA worked out at 50 nM.

B3: PTR 6150 (peptide)
peptide: RPR[Nva]E(SO2‑IQ)A[hLeu]
B3 registered a PKB IC50 with protein kinase B, P31749 of 25000 nM.

B4: PTR 6134 (peptide)
peptide: RPR[Nva]E(S‑IQ)SF
B4 showed a PKB IC50 with protein kinase B, P31749 of 217 nM.

B5: PTR 6136 (peptide)
peptide: RPR[Nle]E(S‑IQ)SF
B5 returned a PKB IC50 with protein kinase B, P31749 of 114 nM.

B6: PTR 6102 (peptide)
peptide: RPRTE([βAla-S‑IQ])SF
In the experiment with protein kinase B, P31749, B6 came in with an IC50 PKB of 300 nM and a PKB IC50 of 300 nM.

B7: TY 60002-61 (peptide)
peptide: RPRVS[Abu]F
B7 yielded an Activity PKB with protein kinase B, P31749 of 5 µM.

B8: PTR 6096 (peptide)
peptide: RPR[Nle]E([βAla-SO2‑IQ])S[Nle]
B8: the PKB IC50 with protein kinase B, P31749 came to 930 nM.

B9: AR 60003-62 (peptide)
peptide: RPR[Nle]SS[Nle]
On to B9, for which, in the experiment with protein kinase B, P31749, the % inhibition at 1 µM is 70% and the Activity PKB was < 1 µM.

B10: PTR 6132 (peptide)
peptide: RPR[Orn]E(SO2‑IQ)SF
In the experiment with protein kinase B, P31749, B10 displayed an IC50 PKB of 20 nM and a PKB IC50 of 20 nM.

B11: PTR 6014 (peptide)
peptide: RPRTSE(SO2‑IQ)F
On to B11, for which, in the experiment with protein kinase B, P31749, the Activity PKB was 25 µM and the PKB IC50 stood at 25000 nM.

B12: PTR 6130 (peptide)
peptide: RPRTD(SO2‑IQ)SF
For the molecule B12, the PKB IC50 with protein kinase B, P31749 came to 9500 nM.

B13: PTR 6020 (peptide)
peptide: RPRTS[Abu]F
modifications: not fully specified (C-terminus); printed as Arg-Pro-Arg-Thr-Ser-Abu-Phe-(O-CO-N-bAla-SO2-IQ); also: -(O-CO-N-bAla-SO2-IQ) on Phe7, attachment unclear
B13: in the experiment with protein kinase B, P31749, the Activity PKB was > 20 µM and the PKB IC50 came out at 18000 nM.

B14: TY-60020-96 (peptide)
peptide: RPR[Nle]E([βAla-X1])[Nva][hLeu]
modifications: not fully specified (C-terminus)
As for B14, in the experiment with protein kinase B, the % inhibition of kinase activity at 1 µM; PKB-kinase (spa) Assay 1 turned out to be 0% and the % inhibition of kinase activity at 1 µM; PKB-kinase (spa) Assay 2 was 54%.

B15: PTR 6090 (peptide)
peptide: RPRTE([Ava-SO2‑IQ])SF
For the molecule B15, in the experiment with protein kinase B, P31749, the PKB IC50 was found to be 5600 nM.

B16: 60005-32 (peptide)
peptide: RPRT[GlyNH2]A[hLeu]
For B16, in the experiment with protein kinase B, the % Inhibition PKB I was 43% and the % Inhibition PKB II was found to be 44%. The molecule further registered a % Inhibition PKA in experiment [1] of 4%.

B17: PTR 6016 (peptide)
peptide: RPRTE(SO2‑IQ)SF
In the experiment with protein kinase B, P31749, B17 registered an Activity PKB of 0.9 µM and a PKB IC50 of 1000 nM.

B18: AR 60003-50 (peptide)
peptide: RPRMSSF
Molecule B18 registered an Activity PKB in the experiment with protein kinase B, P31749 of 2.5 µM.

B19: AR 60003-53 (peptide)
peptide: RPRRSSF
For B19, the Activity PKB in the experiment with protein kinase B, P31749 was 3 µM.

B20: TY-60020-95 (peptide)
peptide: RPR[Nle]E([βAla-X1])[Nva]F
modifications: not fully specified (C-terminus)
Turning to B20, in the experiment with protein kinase B, the % inhibition of kinase activity at 1 µM; PKB-kinase (spa) Assay 1 was 46%, the % inhibition of kinase activity at 1 µM; PKB-kinase (spa) Assay 2 is 90% and the IC50 PKB was 3300 nM. The molecule also returned an IC50 PKA in experiment [1] of 2000 nM.

B21: 60006-7B (peptide)
peptide: RPR[Nva][GlyNH2][Abu][hLeu]
Take B21: in the experiment with protein kinase B, P31749, the % Inhibition PKB I is 53% and the % Inhibition PKB II turned out to be 47%.

B22: PTR 6138 (peptide)
peptide: RPR[Nle]E([βAla-SO2‑IQ])[Abu]F
Consider B22, for which, in the experiment with protein kinase B, P31749, the PKB IC50 was 2000 nM.

B23: AR 60003-52 (peptide)
peptide: RPR[Orn]SSF
As for B23, the Activity PKB with protein kinase B, P31749 worked out at 2.5 µM.

B24: PTR 6128 (peptide)
peptide: RPR[Nle]E(SO2‑IQ)SF
In the experiment with protein kinase B, P31749, B24 yielded a PKB IC50 of 9000 nM.

B25: TY-60020-57 (peptide)
peptide: RPR[Nle]E([Gly-X1])[Dab]F
modifications: not fully specified (C-terminus)
Consider B25, for which, in the experiment with protein kinase B, the % inhibition of kinase activity at 1 µM; PKB-kinase (spa) Assay 1 stood at 92%, the % inhibition of kinase activity at 1 µM; PKB-kinase (spa) Assay 2 stood at 93% and the IC50 PKB was found to be 70 nM. In addition, in experiment [1], the % inhibition of kinase activity at 1 µM; PKA-kinase Assay 1 came out at 95%, the % inhibition of kinase activity at 1 µM; PKA-kinase Assay 2 came to 96% and the IC50 PKA came out at 210 nM.

B26: PTR 6088 (peptide)
peptide: RPR[Orn]E([bGaba-SO2‑IQ])SF
modifications: reading uncertain
In turn, B26 yielded a PKB IC50 with protein kinase B, P31749 of 1180 nM.

B27: PTR 6086 (peptide)
peptide: RPR[Nle]E([βAla-SO2‑IQ])SF
In the experiment with protein kinase B, P31749, B27 came in with a PKB IC50 of 570 nM.

B28: PTR 6104 (peptide)
peptide: RPRTE(S‑IQ)SF
As for B28, in the experiment with protein kinase B, P31749, the IC50 PKB is 100 nM and the PKB IC50 amounted to 100 nM.

B29: PTR 6013 (peptide)
peptide: RPRTS[Abu]F-{O‑CO‑N‑SO2‑IQ}
modifications: not fully specified; printed as Arg-Pro-Arg-Thr-Ser-Abu-Phe-(O-CO-N-SO2-IQ)
In the experiment with protein kinase B, P31749, B29 came in with an Activity PKB of 3 µM and a PKB IC50 of 4000 nM.

B30: 60005-5 (peptide)
peptide: RPRTS[GlyNH2]F
In the experiment with protein kinase B, P31749, B30 came in with a % Inhibition PKB I of 96%, a % Inhibition PKB II of 93% and an IC50 µM PKB of 2.4 µM.

B31: 60006-5A (peptide)
peptide: RPR[Nva][GlyNH2]A[hLeu]
Consider B31, for which, in the experiment with protein kinase B, P31749, the % Inhibition PKB I came out at 47%, the % Inhibition PKB II came out at 43% and the IC50 µM PKB worked out at 10 µM.

B32: TY 60002-96 (peptide)
peptide: RPRTS[Dap][hLeu]
As for B32, the Activity PKB with protein kinase B, P31749 came out at 5 µM.

B33: TY 60002-73 (peptide)
peptide: RPRTS[Abu][hLeu]
For B33, in the experiment with protein kinase B, P31749, the % Inhibition PKB I came to 44%, the Activity PKB amounted to 5 µM and the IC50 µM PKB worked out at 34 µM.

B34: PTR 6152 (peptide)
peptide: RPR[Nva]E([βAla-SO2‑IQ])A[hLeu]
In turn, B34 had a PKB IC50 with protein kinase B, P31749 of 5000 nM.

B35: PTR 6082 (peptide)
peptide: RPRTE([βAla-SO2‑IQ])SF
Regarding B35, the PKB IC50 with protein kinase B, P31749 is 5540 nM.

B36: 60006-11B (peptide)
peptide: RPR[Nva][GlyNH2][Dap][Ph2]
modifications: reading uncertain
In the experiment with protein kinase B, P31749, B36 yielded a % Inhibition PKB I of 51% and a % Inhibition PKB II of 44%.

B37: TY-60020-59 (peptide)
peptide: RPR[Nle]E([Gly-X1])[Orn]F
modifications: not fully specified (C-terminus)
B37: in the experiment with protein kinase B, the % inhibition of kinase activity at 1 µM; PKB-kinase (spa) Assay 1 was determined as 62%, the % inhibition of kinase activity at 1 µM; PKB-kinase (spa) Assay 2 was determined as 75% and the IC50 PKB was found to be 300 nM. For the same molecule, in experiment [1], the % inhibition of kinase activity at 1 µM; PKA-kinase Assay 1 is 92%, the % inhibition of kinase activity at 1 µM; PKA-kinase Assay 2 is 93% and the IC50 PKA was 200 nM.

B38: TY 60002-50 (peptide)
peptide: RPRTSA[hLeu]
Turning to B38, in the experiment with protein kinase B, P31749, the % Inhibition PKB I was 62% and the Activity PKB was found to be 5 µM.

B39: TY-60020-94 (peptide)
peptide: RPR[Nle]E([βAla-X1])A[hLeu]
modifications: not fully specified (C-terminus)
As to B39, in the experiment with protein kinase B, the % inhibition of kinase activity at 1 µM; PKB-kinase (spa) Assay 1 amounted to 9% and the % inhibition of kinase activity at 1 µM; PKB-kinase (spa) Assay 2 was found to be 31%.

B40: 60006-16A (peptide)
peptide: RPR[Nva][GlyNH2][GltNH2][hLeu]
modifications: reading uncertain
In the experiment with protein kinase B, P31749, B40 showed a % Inhibition PKB I of 42% and a % Inhibition PKB II of 42%.

B41: TY-60020-93 (peptide)
peptide: RPR[Nle]E([βAla-X1])AF
modifications: not fully specified (C-terminus)
As to B41, in the experiment with protein kinase B, the % inhibition of kinase activity at 1 µM; PKB-kinase (spa) Assay 1 is -12% and the % inhibition of kinase activity at 1 µM; PKB-kinase (spa) Assay 2 was 58%.

B42: TY-60020-58 (peptide)
peptide: RPR[Nle]E([Gly-X1])[Dab][hLeu]
modifications: not fully specified (C-terminus)
B42: in the experiment with protein kinase B, the % inhibition of kinase activity at 1 µM; PKB-kinase (spa) Assay 1 came to 89%, the % inhibition of kinase activity at 1 µM; PKB-kinase (spa) Assay 2 turned out to be 93% and the IC50 PKB was determined as 120 nM. In experiment [1], the % inhibition of kinase activity at 1 µM; PKA-kinase Assay 1 stood at 98%, the % inhibition of kinase activity at 1 µM; PKA-kinase Assay 2 came out at 99% and the IC50 PKA came to 50 nM.

B43: PTR 6106 (peptide)
peptide: RPRT[Dap]SF
modifications: not fully specified (residue 5)
In the experiment with protein kinase B, P31749, B43 registered a PKB IC50 of 10000 nM.

The % inhibition is how much of the control response was suppressed. A lower % inhibition goes with a response near the control.
